Laboratory results published in US20070036793A1, “Methods for use of an lkb1/strad7mo25 complex” (priority 2003, published 2007).

Tests used:
[1] = molecular target: T1, AMPK (Homo sapiens, UniProt Q13131); assay: Activation and Thr-172 phosphorylation of endogenous AMPK in HeLa cells with or without stably expressed LKB1; format: cell-based; conditions: earlier unpublished results
T1 construct: Endogenous AMPK was immunoprecipitated from the cell extracts and assayed; endogenous in cells; host or cells: HeLa cells (control, or stably expressing wild type or kinase-dead LKB1)

[2] = molecular target: T2, GST-LKB1-STRADα-MO25α complex (Mus musculus, UniProt Q9WTK7); assay: LKB1 kinase assay with AMPK T-loop peptide substrate (Example 3); format: biochemical; conditions: peptide 10-2000 μM, 0.1 mM ATP, 30 min at 30° C.
T2 construct: Constructs expressing the full length wild type and kinase dead mouse LKB1 have been described previously; made in house; host or cells: HEK-293 / HEK-293T cells, co-transfected
T2 sequence (Q9WTK7 1-433 limits assumed): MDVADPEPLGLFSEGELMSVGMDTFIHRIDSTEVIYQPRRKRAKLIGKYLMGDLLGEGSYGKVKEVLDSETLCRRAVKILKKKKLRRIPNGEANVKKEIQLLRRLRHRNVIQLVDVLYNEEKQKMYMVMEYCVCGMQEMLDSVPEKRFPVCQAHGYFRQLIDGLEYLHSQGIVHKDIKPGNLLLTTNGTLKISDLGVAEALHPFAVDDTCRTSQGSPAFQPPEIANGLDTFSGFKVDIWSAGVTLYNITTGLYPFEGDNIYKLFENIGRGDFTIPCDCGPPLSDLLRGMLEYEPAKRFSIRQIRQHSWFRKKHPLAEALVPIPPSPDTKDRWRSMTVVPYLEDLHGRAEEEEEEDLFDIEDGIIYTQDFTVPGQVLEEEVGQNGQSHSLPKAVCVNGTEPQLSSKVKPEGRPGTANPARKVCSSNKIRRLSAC
T2 sequence (Q7RTN6 1-431 partner): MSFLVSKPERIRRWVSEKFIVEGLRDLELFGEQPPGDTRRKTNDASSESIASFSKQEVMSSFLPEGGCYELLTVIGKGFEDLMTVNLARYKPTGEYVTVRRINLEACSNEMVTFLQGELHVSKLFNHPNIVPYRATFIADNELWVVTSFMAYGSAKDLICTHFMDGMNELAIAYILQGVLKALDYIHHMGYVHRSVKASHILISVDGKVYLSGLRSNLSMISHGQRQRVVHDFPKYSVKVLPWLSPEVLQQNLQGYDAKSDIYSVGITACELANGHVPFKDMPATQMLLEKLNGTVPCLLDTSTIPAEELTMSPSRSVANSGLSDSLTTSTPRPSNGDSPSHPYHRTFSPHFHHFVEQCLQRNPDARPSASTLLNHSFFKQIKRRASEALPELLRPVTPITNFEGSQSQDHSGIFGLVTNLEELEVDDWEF
T2 sequence (Q9Y376 1-341 partner): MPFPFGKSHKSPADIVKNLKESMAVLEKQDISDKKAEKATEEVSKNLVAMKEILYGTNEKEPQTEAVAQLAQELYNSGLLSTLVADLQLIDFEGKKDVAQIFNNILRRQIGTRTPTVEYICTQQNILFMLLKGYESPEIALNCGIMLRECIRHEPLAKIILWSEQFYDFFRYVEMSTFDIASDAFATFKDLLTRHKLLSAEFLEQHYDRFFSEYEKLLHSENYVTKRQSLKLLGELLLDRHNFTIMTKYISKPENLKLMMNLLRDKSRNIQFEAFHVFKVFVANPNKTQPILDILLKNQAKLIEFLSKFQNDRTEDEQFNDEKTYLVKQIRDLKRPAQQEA
Description: FIG. 20: Km and Vmax for a peptide substrate (termed AMPKtide). Assay conditions are described in Example 3.
An assay may be performed as follows. Other assays using such a substrate peptide may be used, for example in a high throughput format. The standard assay (50 μl) contained: 0.3 μg of purified GST-LKB1-STRADα-MO25α complex, 50 mM Tris/HCl pH 7.5, 0.1 mM EGTA, 0.1% (by vol) 2-mercaptoethanol, 10 mM magnesium acetate, 0.1 mM [γ^32P]ATP (˜200 cpm/pmol) and T-loop peptide ([…], 10-2000 μM). The assays were carried out for 30 min at 30° C., then terminated by pipetting the reaction mixture onto a 1 cm square of p81 paper, which was washed with 6 changes of 250 ml of 50 mM phosphoric acid (2 min each wash), the paper washed once in 200 ml of acetone and dried. Radioactivity bound to the p81 paper was quantitated by Cherenkov counting. 1 unit of activity is the amount of enzyme that catalyses the phosphorylation of 1 nmol of peptide per minute.

[3] = molecular target: T3, T-loop peptide of AMPK (Example 3)
T3 chain: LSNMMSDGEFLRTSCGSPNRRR

[4] = molecular target: T4, Flag-tagged STRADα, Q7RTN6
T4 chain: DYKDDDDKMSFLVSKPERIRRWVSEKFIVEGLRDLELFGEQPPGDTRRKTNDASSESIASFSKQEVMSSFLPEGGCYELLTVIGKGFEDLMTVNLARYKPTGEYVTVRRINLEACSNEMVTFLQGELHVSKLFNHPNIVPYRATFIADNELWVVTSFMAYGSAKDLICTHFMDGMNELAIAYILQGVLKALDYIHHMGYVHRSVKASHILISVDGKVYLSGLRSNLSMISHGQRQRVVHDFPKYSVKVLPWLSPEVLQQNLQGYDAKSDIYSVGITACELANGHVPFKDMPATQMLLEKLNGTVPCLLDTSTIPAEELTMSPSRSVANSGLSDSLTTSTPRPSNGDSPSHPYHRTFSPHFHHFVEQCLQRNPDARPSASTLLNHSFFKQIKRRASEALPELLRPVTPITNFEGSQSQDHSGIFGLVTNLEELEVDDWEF

[5] = molecular target: T5, Flag-tagged STRADβ, Q9C0K7
T5 chain: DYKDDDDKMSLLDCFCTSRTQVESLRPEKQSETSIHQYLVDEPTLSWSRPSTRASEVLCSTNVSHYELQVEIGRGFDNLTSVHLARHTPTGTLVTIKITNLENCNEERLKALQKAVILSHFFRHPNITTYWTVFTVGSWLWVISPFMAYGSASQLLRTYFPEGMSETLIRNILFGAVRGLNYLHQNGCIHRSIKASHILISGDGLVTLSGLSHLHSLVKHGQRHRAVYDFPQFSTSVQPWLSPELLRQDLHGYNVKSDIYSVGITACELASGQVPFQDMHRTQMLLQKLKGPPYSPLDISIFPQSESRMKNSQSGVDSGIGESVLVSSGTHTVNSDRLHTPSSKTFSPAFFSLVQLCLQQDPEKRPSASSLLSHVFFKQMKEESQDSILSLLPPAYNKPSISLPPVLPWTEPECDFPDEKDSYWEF

[6] = molecular target: T6, Flag-tagged STRADα (human, UniProt Q7RTN6 1-431, limits assumed); assay: heterotrimeric complex purified through GST-LKB1 from co-transfected 293 cells, colloidal blue gel and blots
T6 construct: pCMV5 vector; also called Flag-STRADα; FLAG-STRADα
T6 sequence: T4 chain
Description: (§1) FIG. 4. MO25α is associated with LKB1 through STRAD (A) 293 cells were transfected with plasmids encoding for the expression of the indicated GST fusion proteins together with Myc-MO25α. 36 h post transfection, the GST tagged proteins were affinity purified from the cell lysates using glutathione-Sepharose as described in Materials and Methods. […] 5 μg of total cell lysates prior to affinity purification were also subjected to immunoblotting with anti-Myc antibody to ensure that Myc-MO25α was expressed at similar levels in each co-transfection (lower panel). (B) N-terminal GST tagged LKB1 was expressed in 293 cells in the presence or absence of Flag-STRADα and purified as above. The purified proteins were subjected to SDS-polyacrylamide gel electrophoresis and visualised by Colloidal blue staining (upper panel). The faint protein band indicated, corresponding to an endogenous protein of 40-kDa (marked *), was identified by tryptic peptide mass-spectral fingerprint as endogenously expressed MO25α (with 38% sequence coverage). The purified proteins were also immunoblotted with the indicated antibodies (lower panels). (C) As above except that GST-LKB1 was expressed in 293 cells together with the indicated isoforms of Flag-STRAD and Myc-MO25 and the proteins visualised by colloidal blue staining were also immunoblotted with the indicated antibodies. For all panels, similar results were obtained in at least 3 separate experiments.
(§2) Expression of GST-fusion proteins in 293 cells and affinity purification. 10-cm diameter dishes of 293 cells were transiently transfected with 3 to 10 μg of the pEBG-2T constructs using a modified calcium phosphate method (Alessi et al., 1996). 36 h post-transfection, the cells were lysed and the clarified lysates were incubated for 1 h on a rotating platform with glutathione-Sepharose (25 μl/dish of lysate) previously equilibrated in lysis Buffer.

[7] = molecular target: T7, Flag-tagged STRADβ (human, UniProt Q9C0K7 1-418); assay: as above
T7 construct: pCMV5 vector; also called Flag-STRADβ; FLAG-STRADβ
T7 sequence: T5 chain
Description: as §1, §2

T1 sequence (Q13131 whole entry): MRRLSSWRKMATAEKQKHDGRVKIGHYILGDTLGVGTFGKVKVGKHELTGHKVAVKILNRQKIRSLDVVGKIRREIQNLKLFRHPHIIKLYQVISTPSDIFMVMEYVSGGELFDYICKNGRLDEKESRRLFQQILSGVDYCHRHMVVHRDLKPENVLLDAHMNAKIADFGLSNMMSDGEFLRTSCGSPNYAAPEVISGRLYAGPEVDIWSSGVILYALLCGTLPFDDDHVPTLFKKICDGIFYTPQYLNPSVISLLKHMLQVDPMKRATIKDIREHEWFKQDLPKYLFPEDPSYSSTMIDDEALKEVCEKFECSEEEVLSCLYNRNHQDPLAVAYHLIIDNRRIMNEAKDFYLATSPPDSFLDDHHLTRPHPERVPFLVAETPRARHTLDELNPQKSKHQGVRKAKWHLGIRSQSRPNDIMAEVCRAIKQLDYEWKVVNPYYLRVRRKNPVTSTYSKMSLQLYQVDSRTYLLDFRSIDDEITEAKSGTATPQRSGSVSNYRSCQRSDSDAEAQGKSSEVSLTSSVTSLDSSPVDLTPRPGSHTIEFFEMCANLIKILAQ
T1 sequence (Q9Y478 2-270 partner limits assumed): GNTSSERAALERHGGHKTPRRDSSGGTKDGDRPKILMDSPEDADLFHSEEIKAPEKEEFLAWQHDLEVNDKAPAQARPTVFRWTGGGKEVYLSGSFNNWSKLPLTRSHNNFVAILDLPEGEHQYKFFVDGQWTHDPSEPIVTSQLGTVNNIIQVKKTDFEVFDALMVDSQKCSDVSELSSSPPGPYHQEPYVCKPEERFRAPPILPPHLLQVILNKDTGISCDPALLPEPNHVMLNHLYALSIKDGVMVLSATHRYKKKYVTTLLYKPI
T1 sequence (P54619 whole entry partner): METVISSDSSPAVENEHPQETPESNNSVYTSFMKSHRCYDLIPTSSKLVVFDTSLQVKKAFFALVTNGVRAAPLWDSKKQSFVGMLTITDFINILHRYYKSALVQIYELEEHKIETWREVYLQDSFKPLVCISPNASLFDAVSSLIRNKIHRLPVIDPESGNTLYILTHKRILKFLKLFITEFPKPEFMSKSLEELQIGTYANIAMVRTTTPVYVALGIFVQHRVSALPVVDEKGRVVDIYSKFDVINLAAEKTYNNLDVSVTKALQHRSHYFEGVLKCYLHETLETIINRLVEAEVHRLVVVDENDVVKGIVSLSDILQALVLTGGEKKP

How did the “activation of AMPK” value [1] turn out when CN(C)C(=N)N=C(N)N [metformin] was run?
Its value is “not activated”.

“LSNMMSDGEFLRTSCGSPNRRR [AMPKtide, human AMPKα1 residues 163-181 with 3 additional Arg residues added to the C-terminal]” was tested. Which Km [2] did it give?
Its Km is 1.8 ± 0.48 mM.

And the Vmax [2]?
Its Vmax is 23.4±3.5.

B1: recombinant GST-LKB1:STRADα:MO25α complex (protein)
chain 1: MDVADPEPLGLFSEGELMSVGMDTFIHRIDSTEVIYQPRRKRAKLIGKYLMGDLLGEGSYGKVKEVLDSETLCRRAVKILKKKKLRRIPNGEANVKKEIQLLRRLRHRNVIQLVDVLYNEEKQKMYMVMEYCVCGMQEMLDSVPEKRFPVCQAHGYFRQLIDGLEYLHSQGIVHKDIKPGNLLLTTNGTLKISDLGVAEALHPFAVDDTCRTSQGSPAFQPPEIANGLDTFSGFKVDIWSAGVTLYNITTGLYPFEGDNIYKLFENIGRGDFTIPCDCGPPLSDLLRGMLEYEPAKRFSIRQIRQHSWFRKKHPLAEALVPIPPSPDTKDRWRSMTVVPYLEDLHGRAEEEEEEDLFDIEDGIIYTQDFTVPGQVLEEEVGQNGQSHSLPKAVCVNGTEPQLSSKVKPEGRPGTANPARKVCSSNKIRRLSACKQQ
chain 2: T4 chain
chain 3: T2 sequence (Q9Y376 1-341 partner)
With B1 as the molecule, how does the “Km (phosphorylation of the T-loop peptide)” value [3] read?
Its value is “The Km for the peptide was estimated to be 1.80±0.48”.

And the “Vmax of phosphorylation of AMPKtide by the GST-LKB1-STRADα-MO25α complex” value [3]?
The value was “Vmax: 23.43 ± 3.51 U/mg”.

B2: N-terminal GST tagged wild type LKB1 (protein)
chain: B1 chain 1
For B2, which “LKB1 activity (autophosphorylation and phosphorylation of MBP)” value [4] is on record?
Its value is “co-expression with STRADα induced an 4-fold increase in LKB1 activity”.

What about the Relative activation (MBP): 32P phosphorylation of MBP by affinity purified GST-LKB1-WT co-expressed with STRADα (lane 2), GST-LKB1 alone (lane 1) = 1 [4] of the same molecule?
The Relative activation (MBP): 32P phosphorylation of MBP by affinity purified GST-LKB1-WT co-expressed with STRADα (lane 2), GST-LKB1 alone (lane 1) = 1 was 3.9.

And the “LKB1 activity (autophosphorylation and phosphorylation of MBP)” value [5]?
Its value is “LKB1 was only activated by STRADβ in the presence of MO25 isoforms”.

B3: N-terminal Myc-tagged MO25β (other)
chain: MEQKLISEEDLPLFSKSHKNPAEIVKILKDNLAILEKQDKKTDKASEEVSKSLQAMKEILCGTNEKEPPTEAVAQLAQELYSSGLLVTLIADLQLIDFEGKKDVTQIFNNILRRQIGTRSPTVEYISAHPHILFMLLKGYEAPQIALRCGIMLRECIRHEPLAKIILFSNQFRDFFKYVELSTFDIASDAFATFKDLLTRHKVLVADFLEQNYDTIFEDYEKLLQSENYVTKRQSLKLLGELILDRHNFAIMTKYISKPENLKLMMNLLRDKSPNIQFEAFHVFKVFVASPHKTQPIVEILLKNQPKLIEFLSSFQKERTDDEQFADEKNYLIKQIRDLKKTAP
notes: also called Myc-MO25β; myc-MO25β
Does B3 bind [6]?
Result: binds

Does B3 bind [7]?
Result: binds
